The text below walks through data of patent US20220323599A1 (CELGENE, published 2022).

Like-named read-outs stand apart in the source and are kept apart here.

For assay [1], the target named is T1, cynomolgus BCMA on stably transfected 293T cells (cynomolgus monkey, UniProt Q02223 1-184 (human entry)). In words: FACS cell binding, 293T-cynoBCMA cells.
For assay [2], the target named is T2, human BCMA-Fc (R&D Systems) (human, UniProt Q02223 1-54).
T2 construct: Bought protein; not shown: Fc part of the bought fusion protein, not described
T2 sequence: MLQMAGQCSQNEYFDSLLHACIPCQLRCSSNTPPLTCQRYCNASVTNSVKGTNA
Kind of assay: SPR (Biacore), antibody captured on anti-Fab or anti-Fc surface, human BCMA-Fc as analyte, 25 C.

Assay [3] concerns the target T3, human BCMA on cells (endogenous on multiple myeloma cell lines; stably transfected 293T-hBCMA) (human, UniProt Q02223 1-184).
T3 construct: also called TNFRSF17; CD269
T3 sequence: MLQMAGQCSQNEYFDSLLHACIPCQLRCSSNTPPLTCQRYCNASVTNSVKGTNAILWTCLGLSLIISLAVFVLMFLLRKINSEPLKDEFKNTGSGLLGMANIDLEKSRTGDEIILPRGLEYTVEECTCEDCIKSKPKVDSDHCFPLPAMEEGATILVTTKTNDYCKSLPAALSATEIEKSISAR
Kind of assay: FACS cell binding, NCI-H929 (BCMA+) cells.

For assay [4], the target named is T3, human BCMA on cells (endogenous on …). Kind of assay: cell-based or functional assay.
For assay [5], the target named is T4, cyno BCMA-Fc (custom protein production) (cynomolgus monkey, UniProt Q02223 1-54 (human entry)).
T4 construct: also called cynomolgus BCMA-Fc; not shown: Fc part of the fusion protein, not described
Kind of assay: SPR (Biacore), antibody captured on anti-Fab or anti-Fc surface, cyno BCMA-Fc as analyte, 25 C. (SPR reads the build-up and loss of mass on a sensor chip optically.)

For assay [6], the target named is T5, mouse BCMA on transfected HEK293T cells (mouse, UniProt O88472 1-185).
T5 sequence: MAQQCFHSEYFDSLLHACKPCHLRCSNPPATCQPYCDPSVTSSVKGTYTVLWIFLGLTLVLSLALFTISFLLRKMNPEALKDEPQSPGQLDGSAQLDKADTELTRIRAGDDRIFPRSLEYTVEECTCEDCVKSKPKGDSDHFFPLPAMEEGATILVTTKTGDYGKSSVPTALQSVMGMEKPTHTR
Kind of assay: flow cytometry on 293T-mBCMA cells. On the technique in general: In flow cytometry, cells or beads pass a laser one at a time.

The target of assay [7] is T1, cynomolgus BCMA on stably transfected …. Kind of assay: flow cytometry, 293T-cBCMA cells.
Assay [8] concerns the target T3, human BCMA on cells (endogenous on …). In words: flow cytometry, RPMI-8226 cells.
For assay [9] the target is unchanged. In words: flow cytometry, NCI-H929 cells; NCI-H929 cells.
For assay [10] the target is unchanged. In words: flow cytometry, MM.1S cells.
Assay [11] has the same target. Kind of assay: flow cytometry, 293T-hBCMA cells.
For assay [12] the target is unchanged. In words: flow cytometry, ARP-1 cells.
Assay [13] shares this target. Kind of assay: flow cytometry, OPM-2 cells.
The target is the same in assay [14]. Kind of assay: flow cytometry, U266B1 cells.
For assay [15] the target is unchanged. Kind of assay: cell-based or functional assay. The source holds these as a separate data set.
In assay [16] the target is T6, human BAFF-R on stably transfected 293T cells (human, UniProt Q96RJ3 1-184).
T6 construct: whole, on cells; also called TNFRSF13C
Kind of assay: flow cytometry on 293T cells stably expressing human BAFF-R.

Assay [17] addresses T3, human BCMA on cells (endogenous on …). In words: flow cytometry, NCI-H929 cells.
The target is the same in assay [18]. In words: cell-based or functional assay. This is another data set of the same source.
The target is the same in assay [19]. Kind of assay: cell-based or functional assay. This is another data set of the same source.
Assay [20] has the same target. Kind of assay: cell-based or functional assay. The source holds these as a separate data set.
Assay [21] addresses T7, human TACI on stably transfected 293T cells (human, UniProt O14836 1-293).
T7 construct: whole, on cells; also called TNFRSF13B
T7 sequence (looked up): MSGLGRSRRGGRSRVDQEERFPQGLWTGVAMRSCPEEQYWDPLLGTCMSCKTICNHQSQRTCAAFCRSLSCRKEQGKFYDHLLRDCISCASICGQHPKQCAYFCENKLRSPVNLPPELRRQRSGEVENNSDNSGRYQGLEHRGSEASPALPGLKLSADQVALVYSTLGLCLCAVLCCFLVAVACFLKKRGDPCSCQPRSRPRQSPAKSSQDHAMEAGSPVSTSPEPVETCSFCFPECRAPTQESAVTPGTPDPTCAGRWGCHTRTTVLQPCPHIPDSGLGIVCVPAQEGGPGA
In words: flow cytometry on 293T cells stably expressing human TACI.

T1 sequence (Q02223 other isoform, or with tags, fused parts or gaps): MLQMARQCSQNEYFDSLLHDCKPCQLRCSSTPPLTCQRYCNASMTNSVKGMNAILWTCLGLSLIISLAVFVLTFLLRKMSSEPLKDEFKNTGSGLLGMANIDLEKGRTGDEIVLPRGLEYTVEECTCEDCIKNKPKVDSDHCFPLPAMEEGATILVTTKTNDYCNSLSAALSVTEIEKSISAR

B1: 2265-F02 (Fab-HC Variant ID; Antibody 4), cell-free expressed His- and FLAG-tagged IgG1 used in screening (antibody, V domains shown)
VH: EVQLVESGGGLVQPGGSLRLSCAASGFNISAPGIHWVRQAPGKGLEWVGFINPAGGYTDYADSVKGRFTISADTSKNTAYLQMNSLRAEDTAVYYCARDYIRQYWTYVLDYWGQGTLVTVSS
VL: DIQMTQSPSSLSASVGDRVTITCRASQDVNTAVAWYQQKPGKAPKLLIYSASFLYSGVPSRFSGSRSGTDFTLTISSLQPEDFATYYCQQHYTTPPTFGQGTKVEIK
For orientation: Kd means a measure of binding affinity in units of concentration. By koff is commonly meant the rate constant with which the complex falls apart. Usually kon stands for the rate constant with which the complex forms. A lower kon goes with slow association. For the molecule B1, the Kd in assay [1] is 6.2 nM; in assay [2] it was 0.499 nM; in assay [3] it was 5.2 nM; in assay [5], 3.68 nM. The koff in [2] was 0.000293 s⁻¹; in assay [5], 0.00116 s⁻¹. The kon amounted to 587000 M⁻¹ s⁻¹ in assay [2] and 315000 M⁻¹ s⁻¹ in [5]. Further, the “ARP-1, Conjugate M 2° antibody cell killing, EC50” value in assay [4] stood at 1.9 nM. Moreover, in [4], the “U266B1, Conjugate M 2° antibody cell killing, EC50” value is 0.9 nM.

B2: 2265-F02 Y180/F404 (unconjugated Ab), unconjugated antibody version of Conjugate 4 (antibody, human IgG1, kappa, V domains shown)
VH: EVQLVESGGGLVQPGGSLRLSCAASGFNISAPGIHWVRQAPGKGLEWVGFINPAGGYTDYADSVKGRFTISADTSKNTAYLQMNSLRAEDTAVYYCARDYIRQYWTYVLDYWGQGTLVTVSS
VL: not shown
modifications: p-azidomethyl-phenylalanine (pAMF) replacing HC-Y180 and HC-F404 by EU numbering (actual positions 186 and 410 as printed)
notes: Aglycosylated humanized IgG1
Regarding B2, in assay [6], the binding result was “no binding (tested: titrated from 200 nM)”. Besides, the dissociation constant (Kd) in assay [7] was determined as 2.8 nM; in [8], 1.3 nM; in [9] it was 0.9 nM; in assay [10], 0.9 nM; in assay [11], 2.1 nM; in [12], 1 nM. The Kd in assay [13] worked out at 1.3 nM.

B3: Conjugate 4: Antibody 2265-F02 conjugated to a non-cleavable maytansine warhead (Conjugate M) at Y180/F404 site (DAR4) (antibody, human IgG1, kappa, V domains shown)
VH: EVQLVESGGGLVQPGGSLRLSCAASGFNISAPGIHWVRQAPGKGLEWVGFINPAGGYTDYADSVKGRFTISADTSKNTAYLQMNSLRAEDTAVYYCARDYIRQYWTYVLDYWGQGTLVTVSS
VL: not shown
modifications: p-azidomethyl-phenylalanine (pAMF) at HC-Y180 and HC-F404 by EU numbering (actual positions 186 and 410 as printed), each linked to the non-cleavable maytansinoid drug-linker (Conjugate M); DAR 4
notes: also called Conjugate 4 ADC; BCMA ADC Conjugate 4
With B3, the Kd in [14] stood at 3.9 nM. In assay [15], the “cell killing EC50, NCI-H929, Experiment 1” value was found to be 0.7 nM; the “cell killing EC50, NCI-H929, Experiment 2” value is 0.8 nM; the “cell killing EC50, OPM2, Experiment 1” value was 1.7 nM; the “cell killing EC50, OPM2, Experiment 2” value was determined as 2 nM. For the same molecule, in assay [15], the “cell killing EC50, U266B1, Experiment 1” value came out at 0.7 nM and the “cell killing EC50, U266B1, Experiment 2” value turned out to be 0.8 nM. In assay [6], the binding result is given as “no binding (tested: titrated from 200 nM)”. The binding result in assay [16] is given as “no binding (tested: 67 nM)”. The Kd in assay [17] amounted to 2.4 nM. The molecule further had a Kd in assay [7] of 2.7 nM. Moreover, the Kd in assay [8] is 1.8 nM. Also, in assay [18], the “cell killing EC50, ARP-1, no competing reagent” value was determined as 0.7 nM; the “cell killing EC50, NCI-H929, no competing reagent” value is 0.9 nM; the “cell killing EC50, OPM2, no competing reagent” value stood at 3.3 nM; the “cell killing EC50, U266B1, no competing reagent” value turned out to be 0.9 nM. Besides, the Kd in assay [10] was found to be 1.6 nM. Further, in assay [12], the affinity, expressed as Kd, was 1.2 nM. In assay [19], the “cell killing EC50, NCI-H929, Experiment 1” value turned out to be 0.8 nM; the “cell killing EC50, NCI-H929, Experiment 2” value was found to be 0.8 nM; the “cell killing EC50, OPM2, Experiment 1” value is 1.7 nM; the “cell killing EC50, OPM2, Experiment 2” value turned out to be 1.8 nM. Moreover, in [19], the “cell killing EC50, U266B1, Experiment 1” value was determined as 0.8 nM and the “cell killing EC50, U266B1, Experiment 2” value was found to be 0.9 nM. For the same molecule, in assay [13], the affinity, expressed as Kd, was 2.3 nM. Further, in assay [20], the “cell killing EC50, ARP-1” value was 0.7 nM; the “cell killing EC50, MM.1S” value worked out at 0.82 nM; the “cell killing EC50, NCI-H929” value turned out to be 0.8 nM; the “cell killing EC50, OPM-2” value amounted to 2.1 nM. Also, the “cell killing EC50, U266B1” value in assay [20] is 0.86 nM. The binding result in assay [21] is “no binding (tested: 67 nM)”.
